Consider five substances from patent US20070036806A1.

Chain of human GLP-1 receptor (human) (P43220 24-463): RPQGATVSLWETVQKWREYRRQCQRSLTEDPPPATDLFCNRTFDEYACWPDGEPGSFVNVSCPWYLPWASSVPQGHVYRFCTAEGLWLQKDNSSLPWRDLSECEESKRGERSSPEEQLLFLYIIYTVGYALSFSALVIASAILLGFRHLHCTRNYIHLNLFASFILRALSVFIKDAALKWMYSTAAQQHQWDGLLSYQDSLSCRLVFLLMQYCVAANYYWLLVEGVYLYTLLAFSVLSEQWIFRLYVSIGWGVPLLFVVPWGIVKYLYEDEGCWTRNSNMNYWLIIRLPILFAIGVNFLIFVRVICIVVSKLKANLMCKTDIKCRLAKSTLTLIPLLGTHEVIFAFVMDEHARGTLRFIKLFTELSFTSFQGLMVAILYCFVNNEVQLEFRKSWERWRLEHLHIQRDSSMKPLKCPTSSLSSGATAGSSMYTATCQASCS
Chain of Gly^8-Glu^22-Gly^36-GLP-1(7-37)-2L-IgG4(S228P, F234A, L235A) (Fc fusion) (main): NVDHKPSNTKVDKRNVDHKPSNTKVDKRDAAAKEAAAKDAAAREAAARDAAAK
Chain of Gly^8-Glu^22-GLP-1(7-37)-1.5L-IgG4(S228P, F234A, L235A) (Fc fusion) (main): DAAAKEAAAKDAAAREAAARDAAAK

The assay concerns the target human GLP-1 receptor (human) (UniProt P43220). Briefly: cell-based or functional assay.
Take “Gly^8-Glu^22-Gly^36-GLP-1(7-37)-2L-IgG4(S228P, F234A, L235A) (Fc fusion)”: the Activity (from EC50, relative to Val^8-GLP-1(7-37)OH); CRE-BLAM (beta-lactamase) reporter in HEK-293 cells expressing the human GLP-1 receptor was found to be 441% and the Activity (from EC50, relative to Val^8-GLP-1(7-37)OH, corrected for the 2-fold molarity of dimers); CRE-Luciferase reporter in HEK-293 cells stably expressing the human GLP-1 receptor stood at 398%.
For “Gly^8-Glu^22-GLP-1(7-37)-1L-IgG4(S228P, F234A, L235A) (Fc fusion)” the same measures were 468% and 1120%.
As for “Gly^8-Glu^22-GLP-1(7-37)-2L-IgG4(S228P, F234A, L235A) (Fc fusion)”, the Activity (from EC50, relative to Val^8-GLP-1(7-37)OH); CRE-BLAM (beta-lactamase) reporter in HEK-293 cells expressing the human GLP-1 receptor was 301% and the Activity (from EC50, relative to Val^8-GLP-1(7-37)OH, corrected for the 2-fold molarity of dimers); CRE-Luciferase reporter in HEK-293 cells stably expressing the human GLP-1 receptor turned out to be 535%.
Regarding “Gly^8-Glu^22-GLP-1(7-37)-1.5L-IgG4(S228P, F234A, L235A) (Fc fusion)”, the Activity (from EC50, relative to Val^8-GLP-1(7-37)OH); CRE-BLAM (beta-lactamase) reporter in HEK-293 cells expressing the human GLP-1 receptor was determined as 314% and the Activity (from EC50, relative to Val^8-GLP-1(7-37)OH, corrected for the 2-fold molarity of dimers); CRE-Luciferase reporter in HEK-293 cells stably expressing the human GLP-1 receptor stood at 595%.
On to “Gly^8-Glu^22-Gly^36-GLP-1(7-37)-1L-IgG4(S228P, F234A, L235A) (Fc fusion)”, for which the Activity (from EC50, relative to Val^8-GLP-1(7-37)OH, corrected for the 2-fold molarity of dimers); CRE-Luciferase reporter in HEK-293 cells stably expressing the human GLP-1 receptor was 417%.
